Residue numbers refer to the chain shown, from its start.

Series [1] addresses T1, Rad50-R131A (Saccharomyces cerevisiae, UniProt P12753 1-1312, R131A).
T1 sequence: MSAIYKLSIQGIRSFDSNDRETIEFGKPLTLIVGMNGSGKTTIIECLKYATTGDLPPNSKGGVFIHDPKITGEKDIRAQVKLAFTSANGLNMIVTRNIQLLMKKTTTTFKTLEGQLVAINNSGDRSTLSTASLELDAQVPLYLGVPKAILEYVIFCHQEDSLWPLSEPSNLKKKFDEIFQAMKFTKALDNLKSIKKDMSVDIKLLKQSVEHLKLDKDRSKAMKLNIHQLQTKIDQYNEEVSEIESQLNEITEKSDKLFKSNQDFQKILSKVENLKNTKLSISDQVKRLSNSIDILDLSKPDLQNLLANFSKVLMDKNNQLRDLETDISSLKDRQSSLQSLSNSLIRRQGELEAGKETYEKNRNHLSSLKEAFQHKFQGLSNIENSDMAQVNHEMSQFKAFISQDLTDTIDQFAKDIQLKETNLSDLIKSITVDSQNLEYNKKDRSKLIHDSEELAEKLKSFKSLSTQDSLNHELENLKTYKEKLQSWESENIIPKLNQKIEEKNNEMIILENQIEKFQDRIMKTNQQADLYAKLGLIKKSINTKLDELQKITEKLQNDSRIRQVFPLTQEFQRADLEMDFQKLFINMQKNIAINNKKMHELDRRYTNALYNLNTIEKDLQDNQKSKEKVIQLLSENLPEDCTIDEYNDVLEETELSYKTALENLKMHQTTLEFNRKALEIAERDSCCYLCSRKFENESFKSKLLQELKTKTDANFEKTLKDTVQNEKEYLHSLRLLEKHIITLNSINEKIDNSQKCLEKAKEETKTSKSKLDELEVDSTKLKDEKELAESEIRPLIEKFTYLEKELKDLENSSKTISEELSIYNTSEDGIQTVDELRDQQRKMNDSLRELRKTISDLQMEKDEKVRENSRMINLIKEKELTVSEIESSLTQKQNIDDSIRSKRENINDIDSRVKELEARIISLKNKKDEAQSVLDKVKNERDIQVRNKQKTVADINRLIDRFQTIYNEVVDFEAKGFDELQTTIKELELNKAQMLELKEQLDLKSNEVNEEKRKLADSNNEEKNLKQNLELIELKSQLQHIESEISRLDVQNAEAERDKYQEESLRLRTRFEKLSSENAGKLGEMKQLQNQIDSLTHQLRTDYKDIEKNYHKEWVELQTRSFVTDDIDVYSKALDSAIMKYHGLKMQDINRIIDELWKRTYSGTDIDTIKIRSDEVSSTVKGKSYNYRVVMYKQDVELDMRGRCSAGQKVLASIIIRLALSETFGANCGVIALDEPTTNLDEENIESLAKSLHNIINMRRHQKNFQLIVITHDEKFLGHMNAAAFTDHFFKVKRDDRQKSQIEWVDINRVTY
Put plainly: EMSA.

For series [2], the target named is T2, Rad50-K1181A K1183A (Saccharomyces cerevisiae, UniProt P12753 1-1312, K1181A;K1183A).
T2 sequence: T1 sequence with A131R, K1181A, K1183A
Description: EMSA. (In general: A gel shift assay detects complexes by their altered migration in electrophoresis.)

B1: 83-mer dsDNA (EMSA) (dsDNA)
DNA 1: TTGATAAGAGGTCATTTTTGCGGATGGCTTAGAGCTTAATTGCTGAATCTGGTGCTGTAGCTCAACATGTTTTAAATATGCAA
DNA 2: TTGCATATTTAAAACATGTTGAGCTACAGCACCAGATTCAGCAATTAAGCTCTAAGCCATCCGCAAAAATGACCTCTTATCAA
For the molecule B1, the binding result in series [1] and in series [2] was “binds” in each case.
